# Experimental data as given in paper PMC8472264.
# Target: ArtB (untagged receptor-binding subunit of S. Typhimurium DT104 ArtAB) (Salmonella enterica Typhimurium DT104)
# Experiment: SDS-PAGE of unboiled samples
substance,measurement,value
ArtB (untagged receptor-binding subunit of S. Typhimurium DT104 ArtAB) (natural protein),stoichiometry N,5
